# Results published in paper PMC9157457 (The Journal of Biological Chemistry, 2022).
# Target: the molecule itself
# Assay: cryo-EM structure
protein,measurement,value
Photobacterium phosphoreum LuxC (acyl-CoA reductase) (enzyme) IKKIPMIIGGAERDTSEHEYRELTLNSYKVSIPIINQDDVEAIKSQSVENNLNINQIVNFLYTVGQKWKSENYSRRLTYIRDLVRFLGYSPEMAKLEANWISMILSSKSALYDIVETELGSRHIVDEWLPQGDCYVKAMPKGKSVHLLAGNVPLSGVTSIIRAILTKNECIIKTSSADPFTAIALASSFIDTDEHHPISRSMSVMYWSHNEDIAIPQQIMNCADVVVSWGGYDAIKWATEHTPVNVDILKFGPKKSIAIVDNPVDITASAIGVAHDICFYDQQACFSTQDIYYIGDNIDAFFDELVEQLNLYMDILPKGDQTFDEKASFSLIEKECQFAKYKVEKGDNQSWLLVKSPLGSFGNQPLARSAYIHHVSDISEITPYIENRITQTVTVTPWESSFKYRDVLASHGAERIVESGMNNIFRVGGAHDGMRPLQRLVKYISHERPYTYSTKDVAVKIEQTRYLEEDKFLVFVP,stoichiometry N,4
